Measurements as given in patent US20130034559A1 (AstraZeneca / MedImmune, published 2013).

Tests used:
B7H1_D122N = molecular target: T1, B7H1_D122N (human, UniProt Q9NZQ7 19-238); test: HTRF competition: untagged B7-H1 sample against HIS FLAG tagged human B7-H1 for labelled antibody
T1 construct: range 19-238; also called human B7-H1 extracellular domain mutant D122N
Protocol: (§1) The HTRF® competition assays measured the binding of anti-B7-H1 antibody to HIS FLAG tagged B7-H1. Titration of non tagged B7-H1 samples, prepared as described above, will compete with HIS FLAG tagged B7-H1 for binding to anti-B7-H1 antibody, leading to a reduction in assay signal. […] 10 μl of B7-H1 sample was added to a 384 well low volume assay plate (Corning 3673). […] Assay plates were incubated for 4 hours at room temperature prior to reading time resolved fluorescence at 620 nm and 665 nm emission wavelengths using an EnVision plate reader (Perkin Elmer).

B7H1_T20D = molecular target: T2, B7H1_T20D (human, UniProt Q9NZQ7 19-238); test: as above
T2 construct: range 19-238; also called human B7-H1 extracellular domain mutant T20D
Protocol: as §1

B7H1_F19S = molecular target: T3, B7H1_F19S (human, UniProt Q9NZQ7 19-238); test: as above
T3 construct: range 19-238; also called human B7-H1 extracellular domain mutant F19S
Protocol: as §1

B7H1_D122E = molecular target: T4, B7H1_D122E (human, UniProt Q9NZQ7 19-238); test: as above
T4 construct: range 19-238; also called B7H1 D122E mutant
Protocol: as §1

B7H1_T20V = molecular target: T5, B7H1_T20V (human, UniProt Q9NZQ7 19-238); test: as above
T5 construct: range 19-238; also called human B7-H1 extracellular domain mutant T20V
Protocol: as §1

B7H1_T20A = molecular target: T6, B7H1_T20A (human, UniProt Q9NZQ7 19-238); test: as above
T6 construct: range 19-238; also called human B7-H1 extracellular domain mutant T20A
Protocol: as §1

[1] = molecular target: T7, recombinant monomeric cynomologus B7-H1 FlagHis10 extracellular domain (cynomologus); test: SPR (BIAcore T100), IgG captured via protein G, monomeric cynomologus B7-H1 ECD as analyte, 25 °C, 1:1 model
T7 construct: extracellular domain; also called CYNO B7H1
Protocol: The binding affinity and kinetic parameters of anti-B7-H1 antibodies in the IgG1-TM format to monomeric human and cynomologus B7-H1 were determined by surface plasmon resonance using a BIAcore T100 instrument (BIAcore, Uppsala, Sweden). In brief, experiments were performed at 25° C. using HBS-EP buffer (10 mM HEPES, 150 mM NaCl, 3 mM EDTA, 0.05% v/v surfactant P20) as running buffer. IgGs were affinity captured on the surface of a CM5 sensor chip (BIAcore) via protein G, which was amine coupled onto the CM5 surface to achieve the density of ˜500 Response Units (RU), according to the manufacturer's instructions (BIAapplications Handbook, BIAcore). Recombinant monomeric human or cynomologus B7-H1 FlagHis₁₀ extracellular domains (ECDs) were used as analytes. […] All measurements were baseline corrected by subtracting the sensorgram obtained with the control (activated-deactivated) flow cell, as well as double referenced with blank (zero analyte concentration) injections. Data were analyzed using the T-100 BIAevaluation software package and fitted to a simple 1:1 Langmuir binding model with local Rₘₐₓ and bulk refractive index set to 0. Data were calculated from at least two independent experiments. Mass transport effects were limited by keeping the level of affinity-captured IgGs below 250 RU.

T6 sequence (Q9NZQ7 19-238 T20A limits assumed): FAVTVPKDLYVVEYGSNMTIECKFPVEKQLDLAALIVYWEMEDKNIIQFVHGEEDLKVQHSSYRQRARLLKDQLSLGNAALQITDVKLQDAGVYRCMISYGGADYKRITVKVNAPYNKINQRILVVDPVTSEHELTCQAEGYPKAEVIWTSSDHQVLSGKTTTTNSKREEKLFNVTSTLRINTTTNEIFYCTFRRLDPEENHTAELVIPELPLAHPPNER
T4 sequence (Q9NZQ7 19-238 D122E limits assumed): as the sequence (Q9NZQ7 19-238 T20A limits assumed) above, with A2T, D104E counted along it
T2 sequence (Q9NZQ7 19-238 T20D limits assumed): as the sequence (Q9NZQ7 19-238 T20A limits assumed) above, with A2D counted along it
T5 sequence (Q9NZQ7 19-238 T20V limits assumed): as the sequence (Q9NZQ7 19-238 T20A limits assumed) above, with A2V counted along it
T1 sequence (Q9NZQ7 19-238 D122N limits assumed): as the sequence (Q9NZQ7 19-238 T20A limits assumed) above, with A2T, D104N counted along it
T3 sequence (Q9NZQ7 19-238 F19S limits assumed): as the sequence (Q9NZQ7 19-238 T20A limits assumed) above, with F1S, A2T counted along it

B1: 2.7A4OPT (antibody, V domains shown)
VH: EVQLVESGGGLVKPGGSLRLSCAASGFTFSTYSMNWVRQAPGKGLEWVSSISSSGDYIYYADSVKGRFTISRDNAKNSLYLQMNSLRAEDTAVYYCARDLVTSMVAFDYWGQGTLVTVSS
VL: SYELTQPPSVSVSPGQTARITCSGDALPQKYVFWYQQKSGQAPVLVIYEDSKRPSGIPERFSGSSSGTMATLTISGAQVEDEADYYCYSTDRSGNHRVFGGGTKLTVL
notes: Germlined variable domains; human IgG1-TM (L234F, L235E, P331S), lambda; also called 2.7A4OPT IgG1-TM
- binding result (B7H1_D122N): no binding
- binding result (B7H1_T20D): no binding
- binding result (B7H1_F19S): no binding
- binding result (B7H1_D122E): no binding
- binding result (B7H1_T20V): no binding
- binding result (B7H1_T20A): no binding
- Kd [1]: 0.835 nM
- koff [1]: 0.0011 s⁻¹
- kon [1]: 1.31e+06 M⁻¹ s⁻¹
